Results: the supplement of paper PMC9170038

Experiments:
MS2 coat protein [1] = assay: apparent KD of MS2 coat protein, switch ON state; designed switch direction (-1 OFF switch, 1 ON switch): -1; higher = weaker reporter binding; settings: FMN input: 0 or 200 uM; Eterna round: R93 (includes R88 designs)
Summary of the method: (§1)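 Apparent KD per design is the median of normalised cluster binding-curve fits. Designed RNA switches transcribed on-chip from Illumina sequencing clusters were titrated with SNAP-549-labelled MS2 coat protein in twofold steps from 0.7 or 1.5 nM to 3 µM, with 0.8–1.5 h down to 10–20 min per step. Buffer: 100 mM Tris-HCl pH 7.5, 80 mM KCl, 4 mM MgCl2, without or with constant ligand.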

MS2 coat protein [2] = assay: apparent KD of MS2 coat protein, switch OFF state (with FMN for OFF switches, without FMN for ON switches); designed switch direction (-1 OFF switch, 1 ON switch): -1; higher = weaker reporter binding; settings: FMN input: 0 or 200 uM; Eterna round: R93 (includes R88 designs)
Summary of the method: as §1

Sequence	apparent KD of MS2 coat protein (MS2 coat protein [1]) [nM]	apparent KD of MS2 coat protein (MS2 coat protein [2]) [nM]
AAAAAACAUGAGGAUCACCCAUGUGAGGAUAUCGAAAAAAAAAUAAAAAUAAAACAUACGAGAAGGCACACCAA [Amethyst 59]	30.5	35.7
AAAAAACAAGGAUAUACAAAAAUAAAAAGAAUAAAGUGAAAACAUGAGGAUCACCCAUGUAGAAGGUGUAAAAA [Default title]	67	44.8
AGGAAACAUGAGGAUCACCCAUGUAAGGAUAUGAGAAAGAAAAGAAAAGAAAGAAGAAUCAGAAGGUACAAGAA [Semerkhet]	34.4	89.2
ACCUCACAUGAGGAUCACCCAUGUUAGGAUAUGCCCGGCAGGUUCUGACCUGCCUAAAGCAGAAGGAACGUGCG [Beusus]	17.4	57.9
AACAGUACAGGAUAUACAUGAGGAUCACCCAUGUGAUAGGAAUAAAACAAAAAUAAAAGUAGAAGGGUACUGGA [Ruby 46]	34	145
ACUAACGGAGGAUAUACUAACAAACCUCAAACAUACAUCAAACAUGAGGAUCACCCAUGUAGAAGGCCGAAACU [JR_Exc002_Sub004]	34.4	52.8
CAGUACUGAGGAUAUACAUGAGGAUCACCCAUGUGGGAAAGCUACGAAAGUAGCAAAUGUAGAAGGCAGUACUG [Ex3: 805]	153	98.7
AAAAAUGGAGGAUAUACAUGAGGAUCACCCAUGUGUGGCCAUACUAUGUGGUCGUCAGGUAGAAGGCCAAAAAA [Gilly Gone Silly 23 - Jieux - Exclusion 3]	24.9	178
AUGUACCUAGGAUAUACAUGAGGAUCACCCAUGUAUUGGGAGCAAUCCAGUUAAUAUUGUAGAAGGAGGUGAAA [JR_Exc003_Sub317]	38.1	65
GAAUGAUGAGGAUAUACAUGAGGAUCACCCAUGUGUAAAAAUAAAUACACAAAAGAAAGUAGAAGGCAUCAAAG [Mat - Exclusion 3 - Mayanna mod - D120]	22.9	99
AACAUGUCAGGAUAUGCAAAAGGAGACUGACACGCGAGUGAGCAGAAGGGACAUGAGGAUCACCCAUGUUCAAA [Mat - Mod of Meechl]	20.9	15.6
AAUAAGUCAGGAUAUGCAAAUAAUAAAUAAAAUAAAAUAAAGCAGAAGGGACAUGAGGAUCACCCAUGUAAAUA [Opal 40]	47.9	41
AACAUGUAAGGAUAUGCUGCUCGUCACAAAAGUGAUGAGUAGCAGAAGGUACAUGAGGAUCACCCAUGUAAAGA [JL eternac mod 14]	50.6	111
CUCAAGUAAGGAUAUGCAAGAAAAGAAAAGAAAGAAAAGAAGCAGAAGGUACAUGAGGAUCACCCAUGUAAGAA [EteRNA is fun!]	25.4	42.3
AAGAAGUCAGGAUAUGCUUGUCGUCACAAAAGUGAUGACGAGCAGAAGGGACAUGAGGAUCACCCAUGUAAAGA [JL eternac mod 1]	42.1	41.9
AAGAAGCAAGGAUAUACAUGAGGAUCACCCAUGUAAAAGAAAGAAAAGGGAAAGAAAAGUAGAAGGUGCAAAGA [Ruby 69]	43.6	72.8
AAGAACGGAGGAUAUACAAAAUAAAAGAAAAGAAAGAAAGAACAUGAGGAUCACCCAUGUAGAAGGCCGAAGAA [Sehetepibre Sewesekhtawy]	20.9	29
AACAGUACAGGAUAUACAUGAGGAUCACCCAUGUGAAAAUUAAGUGGAGAACCACAGUGUAGAAGGGUACUGGA [Mat - Exclusion 3 - Eli mod - D52]	142	49.8
AAAAAGUGAGGAUAUACAUGAGGAUCACCCAUGUGUAUAAAAAAUUACACAAAAGCAUGUAGAAGGCACUAAAA [JL In the Red]	37	143
